Assay: soluble on expression in E. coli; label from the status in PepcDB or PDB records

| Sequence | soluble on expression in E. coli |
| --- | --- |
| MSLAHFSVLPPEINSLRMYLGAGSAPMLQAAAAWDGLAAELGTAASSFSSVTTGLTGQAWQGPASAAMAAAAAPYAGFLTTASAQAQLAAGQAKAVASVFEAAKAAIVPPAAVAANREAFLALIRSNWLGLNAPWIAAVESLYEEYWAADVAAMTGYHAGASQAAAQLPLPAGLQQFLNTLPNLGIGNQGNANLGGGNTGSGEGHHHHHH | not soluble |
| MPNLSCGVDNCAYNQNDMCSLNSIKVNGSFANHSEATCCGSFVEKGGFTNAAVDMGPAEPATSVACEAEKCCYNKNCKCHAESIDISGDYAQHQDNTECSTFRQELEHHHHHH | soluble |
| MKRLDKKEALDLLHHASLTELGEMAYKRKLELHPEKITTFVVDRNINYTNVCCIDCSFCAFYRHHKEDDAYILSFEEIGKKIEELEAIGGTQILFQGGVHPKLKIEWYEELVSWIKEHYPNITVHGFSAVEIAYIAKASKISITEVLKRLQAKGLFSIPGAGAEVLSDRVRDIIAPNKCDTATWLEVHRQAHKIGMKSTATMMFGTVENDEEIIDHFEHLRKLQDETGGFRAFILWSFQSDNTALIQKHPEIMKQSSNKYLRLLALVRLYLDNFKNLQSSWVTQGSLIGQLALKFGANDLGSTMMEENVVSAAGASYRMNQDEMIRLIRSLGENPAKRNTAYEILERFLEHHHHHH | not soluble |
| MVHDSALPFDALPMPPQGREGFEECPYLDSQWVADTNGQRMTGQGVDTRFDTPACVFWSYPEAPQATVMVRHMPSEEEAIRVVDWAAPIDTTEPAEEPDGWSGGRAGHEEGAVYAVQKGPVAVVVWSNQQQSLKAELMAKEAIARLGL | soluble |
| MGSDKIHHHHHHMYREFYGLREKPFSKTPDPRYLFLSRGHREALARLQYAVEERELALLTGDIGCGKTTISRALMDAMGEACRFCFIFNPRLSPLEFLRVIARSLGIDNPAGAKDELLKQLTETLYLMHAEGRCPVIVVDEAQLIPDRDVFDEIRLLTNYQLDDQNLMSVVLMGQPELRQILADPVHEPLRQRIALHYHLQPLSLDETLEYIDFRLEVAGGTPGLFSPDAVQRIHELSGGVPRKINILATNALLVGYGRDAAWIDASLVEELRDEANLY | not soluble |
| VSRSRKEEERQEQSARLLSKLRRFDDLDRNWPIKILIQGLRFPIRSEQRLTEYFGCSNSYEISLRDIMNFLITDYEKIPLDLYEVCPAYKQKQIGRKTYSAIVNHLSEQGLGSTFRCEWNMRLKKLIRFMEKGWEYIPDSFRQYEYRA | soluble |
| MFALVLAAGRSRRFDGDKRKALLPCGRTLLTACLETAGKVFTETGVVLREDDEVQTLGIPSKVTIIRCKHADLGMGHSLAAGIAAALNSSADAVAILLADMPWIEPQTLRDLARLADPQRIALPMHEGQRGHPVIIGRRFWPRLLALEGDQGAKALITNNPAFCDVMNCDDPGVLRDADTRSALAIACRQHLTAGRDLEHHHHHH | not soluble |
| MWPPQGVPMSTPGSSAGHMPLGAGAASFPGQMNGPPQHPGMQYSGQMQQLPYGQMEGNHAMYDQRIMGQRAAGRPGMMPDYPQMPMGQTPGNTMMRMPVQYPSGPSQMAGHPHMQQMQYGHMMRAPPVSVYGQMNNAQQYAVTAHPNPVPQPYYHPEVRQLYETTAGYIVDRELLAEGHVTPGSNGVEAMLTHDASDFLKVSPQTDVLFSIWPVTKSNDPNIQYEVYINQKSVMNSHMQVKSIFIKDFLISGMNSIHIVYNGPQQMYKYACEFVTRKSVIELRKILIQKRVIEGQQLATQQKQQYMQMANKRQAGFYPVSLNCVLSKKRMFTPAKHHECKKIFDLAQLINANKGMTRYFCQTCNAYFKFEDITADYFLLNFLQSIPAGVNDLIVEKTGVVRSGDVEDVKPKRGKKKTDNDANGNGIKRIKSEIIVKQETFTDMHGRNVPFSPMPMPGSVPPDWTRLQSPSFSMQSPNKVQLGPATPATPGMVFQNPASAGSMLNMSSPRQTMIPGMHPMMPPHDVTMRSGSAPYTPESVKNDKNDELLMHIEGLYVCDVPILENEQLTVRYMDGTKDLCFEDSMVYEFAESPKHQQQIDGPPQTLMAPGSTASSSGSTFTPPFDDIHLGNRPSH | not soluble |
| MGSDKIHHHHHHMFIGFDYGTANCSVAIMRDGHPQLLTMENNSALLPSMLCAPTREAVSEWLYRHHDVPATDEETQALLRRAIRYNREEDIEVGAQSVQFGLASLAHYIDDPQEVWFVKSPKSFLGASGLKPQQVALFEDLVCAMMVHIRHTAHSQLPEAITQAVIGRPINFQGLGGDDANRQAQGILERAAKRAGFQEVVFQYEPVAAGLDYEATLREEKRVLVVDIGGGTTDCSMLLMGPQWRQRADRENSLLGHSGCRVGGNDLDIALAFKNLMPLLGMGGETEKGIALPVLPWWNAVAINDVPAQSDFYSSANGRLLNDLVRNAREADKVALLLKVWRQRLSYRLVRCAEESKIALSGQADVTARLPFISDDLAVAISQQGLEAALDQPLTRILEQVQLALDSAQEKPDVIYLTGGSARSPLIKKALSEQLPGIPVAGGDDFGSVTAGLARWAEVVFR | not soluble |
| QSSAQRHADLNTLIGHTEPVANIAQDLYSSLSLADTEASASFVRGTNDNYVEYIQKAALLVTQTDGDIANIATQLPVYTGLVETARANNRQGHPVGVAYMSEASTLMQESILPAASQLYLNAAEQVSTAQRNLARPQ | not soluble |
| MSSIVCHPILDSQNGIATDAVIKKQRPPPLVLSRPKDLIQEACQRLVLSDQQLRRIMQSMEKSMEQGLATSTKKVAVKMLPTYVDSVPNGTESGDFLALDLGGTNFRVLHIKLQGKETKMTGKIFRVPESIMRGTGEALFDHIAGCMAKFMGENDLKDAQKLPLGFTFSFPCEQEGLTKGKLVTWTKGFKASGVEGVDVVTLLHEACHRRKDIDIDVVALLNDTVGTLMACAFQENSCQIGVIVGTGTNACYMERLDRIPKLAGYVDEHGVTPEEMIINTEWGAFGDDGALDFLRTEWDEVVDRESINPGQHLYEKMISGMYMGECARVVLEDLAKQGLLFGGNSDAISVPHCFPTKFVSEIDSDLLEDDDRTFQKTYQILEDIGVEMITANDCANVAYVCSLISTRAAHLTAAGIAMLLNRMNKKHVTVGVDGSVYRFHPTYPTLLDAKIGELIVGDIEYKLMLSEDGSGRGAALVAAVATRLKEEKLAASLSSSSSNQ | not soluble |
| MLTIKNLHASVHNNQILRGVNLTINAGEVHAIMGPNGSGKSTLASVLAGREDYAIVDGDVRYFDEDLFELSPEDRAAKGLFLAFQYPVEIPGVNNLYFLKTAVNSIRKTRGEAPFDAIDLMGLVKEKLALVDMDDKFLKRSVNEGFSGGEKKRNEILQMLMLDPRLAILDETDSGLDIDALQTVAKGVNSLRNKERAILLVTHYQRLLDYIKPDFVHVLVNGRIVLSGDQSLALELEKKGYGWL | soluble |
| KKEKSPKGKSSISPQARAFLEEVFRRKQSLNSKEKEEVAKKCGITPLQVRVWFINKRMRSK | soluble |
| MPTENELKIYLKRWDKKYGLTYKVLDILQTVFYRSDATREAFVEMCGDLDVQKLTFDSYLYKTVVPANPITQLKITAKTIGSLIRGNALAPLEHHHHHH | not soluble |
| GSSMKASSGDQGSPPCFLRFPRPVRVVSGAEAELKCVVLGEPPPVVVWEKGGQQLAASERLSFPADGAEHGLLLTAALPTDAGVYVCRARNAAGEAYAAAAVTVLEPPA | soluble |
| MGSDKIHHHHHHMTKKTGFFKRLKALELPQKQLFAIALCQRMLPNYQLFSEVCEFGDPAVLNTVLELLWQSQYDNKLKFNIDVHLQRLEDNTPDPVDFEAYGVYPAMDAVVALSTLLSAIQDKNEEDIINISKLSSSTVANYIEAISDVDLVDDALDDFVFAHEVMEEEKELQNSLLEIIEENPKITAELVKGLRKDIIEAGVSNIGISIA | not soluble |
| SLVGTPNLLTLDEADATWTLIKDKVIEEHFGPNAVAVPFLSDAACYDLLGVLVKQSRPAHTRLALPGRQGRRALKPVGPLPSLLEQAGSEGAFAHCTREYSPNGRAERAYEETRMLDGQPCKIRLHMGDLRKKVAFLLLPPGQVSLQQTLPWLRSTHSIYVIYQVFSCSWLQLGLTSTAREPQLLRLLRSLPVAFSCLKFSLQSKGVLGPQKPLTKDPLPHGANWVRPNLSIMPPLAPTSASADTTEAADVPPPVPAPPTPPPQEGPEDKPTRFSYKGRNPFWRGPQILSENWLFSPRSPPPGAQGGGPRDPDGHSMSLPLLQGLSSEFDSDD | not soluble |
| SAMNGFERELQSRVLSVIPHGELEGVNGPLQNYTKTMNQALQHEHVVAAAPYVRFTGLAEKGSKLKAIEVRGVDPAYEQAVSSMSDFIDPEAWQNFYSGQQQVILGRGVANELKVQVGDYVTLMIPQTGGTNKVQAPKRVRVKVAGFLTLNGQIDHSLALVPLADAQQYVRLGDGVTGISLKTDDVLDAPSIVREVGNLVNVYVYLKSWQQQFGFLYRDIQLVRT | soluble |
| MASCHEPSAFKSLCAHPSTLTATFDVSPYSSAFHLPIHPALLSNTHLLHLNTYNPTTYESTERLFEQNNNNSEKAESCSSRDSSHDSSSPTSTGGSSRDNVIVRNELKRKKDQVKDVAYWERRRKNNDAAKRSRDQRRMKEDEMAHRATSLERENMLLRVELDQLRAETDKLRALILTTPTTSISIPIPLQSLPLLTAQTAPASSVITTSQMYAPLPLKIPKTPSPSLLRSTVLVSNSSKT | not soluble |
| MGSDKIHHHHHHMKPIATPDPIIAQAVKLFAERGYAETNLPSIAKAANVAVGTIYRHFKGKEDILNTAFTDIMDYFHDSLADAANCNVSDPESTFSHLFDAAALTMQHYPTELHFIEQNVFNEALRPESRAARDRVTTLISNMLMEGQEHGVIVKADVRTQLAILYGSIVSMIDIVWVQQQLQGHVPDQDQLALELKNQIWNGLTCERSIFQ | not soluble |
| MGSDKIHHHHHHMTMTFALRDPAQVLARALELRVDVSPETAEVEHELGALHDRMRRPGDRLHDMPHMPSGLPGLRLRYREADGEIFVYVEDVASRQLAGYTVFNRLIEVGRRADPWVRSPHTKFAPPYQRLGLASGLYRWALDGGLCLLSGARQSAGAHALWQSLGRRYALGYVDLRYKTLTSLGEQVSAVVKDDLHTRMLLLGHGWTLGRFKEATGMY | not soluble |
| MGSDKIHHHHHHMRNWLLPEYIEDVLPRDAYRIEKIRRLIMDMLFAHGYQFVMPPLLEYVESLLAGSGSGMNLRMFKVVDQLSGRMMGLRADMTPQAARIDAHLLNISGVTRLCYASSVVHTVPDEITRTREPFQVGAELYGHSGIESDLEIQCLLLECLSVSGIHSIHLDLGHIRVFRSLIRDSGIKPEFEMELYAALWAKDISSLKELVRTGLNKRLTRSVQNALLLLPELYGDGTVLLSARQHLPDFPEIGEALDQLEHVARILQPYVDRITFDLADLRGYHYHTGMVFAVYTPGCPAPIALGGRYDEIGKSFGRARPATGFSLDLKQLSQLTDMNGYPSGILAPWKPEDEKLAAMVRQLRAEGHIVVTELPGEENQEVTGCDRKLVFRNGNWEIDPVTG | not soluble |
| MYTYKIGISPEEHDQFVLAQPQAGLLQSSKWGKVKDNWKHERISFYENGVQVAAAACLIRKLPLGFTMIYIPRGPIMDYANFELLDFVIKTLKTFGKSKRALFIKIDPSLVIKQTLEGKESKENDVTLSIIAFLKKLGVEWSGRTKELEDTIQPRIQANIYAKDFDFDSLPKKAKQSIRTATNKGVNVTIGGSELLDDFSALMKKTENRKGIILRGKSYYQKLLGIYAGQSYITMASLDLPEQKKLLIQQLDKALAEQARLTDKSKPSKVAENQKTIARLQKDLTILSEQLATGQTRIPLAATLTLIYGETSENLYAGMDDDYRNYQAPLLTWYETAKEAFKRGCRWHNLGGVENQQDGGLYHFKARLNPTIEEFAGEFNIPVGLVSSLAILTYNLRKKLRSTTNGTN | not soluble |

Source: the DeepSol protein solubility set
